Target: GST-TRAF6 (mouse) (UniProt P70196)
Experiment: SPR

Chain of UniProt P70196 (P70196 whole entry): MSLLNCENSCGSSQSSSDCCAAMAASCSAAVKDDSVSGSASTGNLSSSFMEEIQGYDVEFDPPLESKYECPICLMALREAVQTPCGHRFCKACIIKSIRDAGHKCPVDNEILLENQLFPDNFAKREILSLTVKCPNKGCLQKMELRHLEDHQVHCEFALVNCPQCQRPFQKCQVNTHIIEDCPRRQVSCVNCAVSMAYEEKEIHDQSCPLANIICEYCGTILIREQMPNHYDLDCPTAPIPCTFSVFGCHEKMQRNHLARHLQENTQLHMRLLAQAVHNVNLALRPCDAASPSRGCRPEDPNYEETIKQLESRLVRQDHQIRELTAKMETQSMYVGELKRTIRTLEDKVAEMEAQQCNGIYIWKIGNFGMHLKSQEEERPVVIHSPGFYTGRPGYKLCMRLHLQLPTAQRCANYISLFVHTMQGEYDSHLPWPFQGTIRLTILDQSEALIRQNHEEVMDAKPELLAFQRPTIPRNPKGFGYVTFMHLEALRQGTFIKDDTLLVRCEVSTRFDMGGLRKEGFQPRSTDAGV

neuroplastin intracellular peptide containing the TRAF6 binding motif
Kd: 88 µM | stoichiometry N: 1

From publication doi:10.1101/768341
